The record followed here is patent US20240376151A1, “STAPLED PEPTIDES AND METHODS THEREOF” (FOG PHARMACEUTICALS, INC., priority 2022, published 2024).

The target of this test is T1, RNF31 PUB domain (Homo sapiens, UniProt Q96EP0).
T1 construct: MBP-TEV (N, cleaved yes); made in house; host or cells: E. coli BL21 (DE3) pLysS
T1 sequence (Q96EP0 1-179): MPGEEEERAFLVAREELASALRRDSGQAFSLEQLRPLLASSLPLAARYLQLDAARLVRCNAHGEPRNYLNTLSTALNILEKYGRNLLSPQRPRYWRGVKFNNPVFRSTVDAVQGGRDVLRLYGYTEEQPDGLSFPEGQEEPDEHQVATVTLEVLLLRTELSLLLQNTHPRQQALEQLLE
Nature of the test: Phage Library Screening with NGS, RNF31 PUB domain. It counts as binding. As to conditions: for Phage library screen NGS readout, Target Concentration 10 / Phage library screen NGS readout, Target Concentration 30 / Phage library screen NGS readout, Target Concentration 100 / Phage library screen NGS readout, Target Concentration 300 / Phage library screen NGS readout, Target Concentration 1000: RNF31 PUB domain clusters C41-C45; for Phage library screen NGS readout, BLANK: clusters C41-C45.

[1] abbreviates: target concentration 1000, first column.
Setting [2] is: target concentration 1000, second column.

With DPAYSSCSWAAIYCNWT, the “Phage library screen NGS readout, Target Concentration 10” value is listed as 1; the “Phage library screen NGS readout, Target Concentration 30” value amounted to 1; the “Phage library screen NGS readout, Target Concentration 100” value was found to be 5; the “Phage library screen NGS readout, Target Concentration 300” value is reported as 2. Moreover, under setting [1], the “Phage library screen NGS readout, Target Concentration 1000” value is 7. Also, under setting [2], the “Phage library screen NGS readout, Target Concentration 1000” value was 4. For the same sequence, under “column 1 of 5”, the “Phage library screen NGS readout, BLANK” value came to 1. The “Phage library screen NGS readout, BLANK” value (column 2 of 5) turned out to be 1. Further, the “Phage library screen NGS readout, BLANK” value (column 3 of 5) was 4. Moreover, the “Phage library screen NGS readout, BLANK” value (column 4 of 5) stood at 2. In addition, the “Phage library screen NGS readout, BLANK” value (column 5 of 5) worked out at 1.
Turning to DPASHMCLEAAVMCTYD, the “Phage library screen NGS readout, Target Concentration 10” value worked out at 0; the “Phage library screen NGS readout, Target Concentration 30” value came out at 0; the “Phage library screen NGS readout, Target Concentration 100” value was determined as 0; the “Phage library screen NGS readout, Target Concentration 300” value was found to be 4. Moreover, the “Phage library screen NGS readout, Target Concentration 1000” value under setting [1] was found to be 10. The “Phage library screen NGS readout, Target Concentration 1000” value under setting [2] amounted to 13. Under “column 1 of 5”, the “Phage library screen NGS readout, BLANK” value was 0. The “Phage library screen NGS readout, BLANK” value (column 2 of 5) amounted to 0. For the same sequence, under “column 3 of 5”, the “Phage library screen NGS readout, BLANK” value stood at 0. Besides, where the note is “column 4 of 5”, the “Phage library screen NGS readout, BLANK” value is given as 0. Moreover, for the setting “column 5 of 5”, the “Phage library screen NGS readout, BLANK” value turned out to be 0.
As to DPARRECWDAAILCTYY, the “Phage library screen NGS readout, Target Concentration 10” value is given as 0; the “Phage library screen NGS readout, Target Concentration 30” value was 0; the “Phage library screen NGS readout, Target Concentration 100” value stood at 1; the “Phage library screen NGS readout, Target Concentration 300” value came to 12. Besides, under setting [1], the “Phage library screen NGS readout, Target Concentration 1000” value was 40. Besides, the “Phage library screen NGS readout, Target Concentration 1000” value under setting [2] is given as 44. The “Phage library screen NGS readout, BLANK” value (column 1 of 5) came to 0. Further, where the note is “column 2 of 5”, the “Phage library screen NGS readout, BLANK” value came to 0. For the same sequence, the “Phage library screen NGS readout, BLANK” value (column 3 of 5) came out at 1. Further, under “column 4 of 5”, the “Phage library screen NGS readout, BLANK” value is on record as 0. Under “column 5 of 5”, the “Phage library screen NGS readout, BLANK” value is listed as 0.
With DPALDYCLYAAYDCMYA, the “Phage library screen NGS readout, Target Concentration 10” value worked out at 0; the “Phage library screen NGS readout, Target Concentration 30” value worked out at 0; the “Phage library screen NGS readout, Target Concentration 100” value came out at 0; the “Phage library screen NGS readout, Target Concentration 300” value is given as 3. The “Phage library screen NGS readout, Target Concentration 1000” value under setting [1] amounted to 5. Also, the “Phage library screen NGS readout, Target Concentration 1000” value under setting [2] is on record as 12. Moreover, the “Phage library screen NGS readout, BLANK” value (column 1 of 5) amounted to 0. In addition, for the setting “column 2 of 5”, the “Phage library screen NGS readout, BLANK” value turned out to be 3. For the same sequence, the “Phage library screen NGS readout, BLANK” value (column 3 of 5) amounted to 0. The “Phage library screen NGS readout, BLANK” value (column 4 of 5) is 0. Moreover, for the setting “column 5 of 5”, the “Phage library screen NGS readout, BLANK” value is 0.
Regarding DPAFTDCQLAAAVCMTY, the “Phage library screen NGS readout, Target Concentration 10” value came out at 0; the “Phage library screen NGS readout, Target Concentration 30” value is reported as 0; the “Phage library screen NGS readout, Target Concentration 100” value came to 3; the “Phage library screen NGS readout, Target Concentration 300” value turned out to be 31. Also, the “Phage library screen NGS readout, Target Concentration 1000” value under setting [1] came out at 161. The “Phage library screen NGS readout, Target Concentration 1000” value under setting [2] was 145. The “Phage library screen NGS readout, BLANK” value (column 1 of 5) was determined as 1. In addition, where the note is “column 2 of 5”, the “Phage library screen NGS readout, BLANK” value turned out to be 2. Also, the “Phage library screen NGS readout, BLANK” value (column 3 of 5) came to 0. Moreover, the “Phage library screen NGS readout, BLANK” value (column 4 of 5) is reported as 0. For the setting “column 5 of 5”, the “Phage library screen NGS readout, BLANK” value was determined as 0.
With DPAYDYCLYAAYDCTQT, the “Phage library screen NGS readout, Target Concentration 10” value came to 0; the “Phage library screen NGS readout, Target Concentration 30” value was 0; the “Phage library screen NGS readout, Target Concentration 100” value is listed as 1; the “Phage library screen NGS readout, Target Concentration 300” value was 5. Also, the “Phage library screen NGS readout, Target Concentration 1000” value under setting [1] is listed as 48. Moreover, under setting [2], the “Phage library screen NGS readout, Target Concentration 1000” value is 38. The “Phage library screen NGS readout, BLANK” value (column 1 of 5) worked out at 1. Further, the “Phage library screen NGS readout, BLANK” value (column 2 of 5) came out at 0. Moreover, under “column 3 of 5”, the “Phage library screen NGS readout, BLANK” value came to 0. Under “column 4 of 5”, the “Phage library screen NGS readout, BLANK” value is reported as 1. Also, where the note is “column 5 of 5”, the “Phage library screen NGS readout, BLANK” value is recorded as 0.
For the sequence DPAHANCQLAADVCSTY, the “Phage library screen NGS readout, Target Concentration 10” value was 0; the “Phage library screen NGS readout, Target Concentration 30” value turned out to be 0; the “Phage library screen NGS readout, Target Concentration 100” value turned out to be 0; the “Phage library screen NGS readout, Target Concentration 300” value turned out to be 13. Besides, the “Phage library screen NGS readout, Target Concentration 1000” value under setting [1] is 49. Further, the “Phage library screen NGS readout, Target Concentration 1000” value under setting [2] turned out to be 33. Besides, the “Phage library screen NGS readout, BLANK” value (column 1 of 5) is 1. Moreover, the “Phage library screen NGS readout, BLANK” value (column 2 of 5) is reported as 0. In addition, the “Phage library screen NGS readout, BLANK” value (column 3 of 5) worked out at 0. Further, where the note is “column 4 of 5”, the “Phage library screen NGS readout, BLANK” value amounted to 0. Also, under “column 5 of 5”, the “Phage library screen NGS readout, BLANK” value was found to be 0.
In the case of DPAFWECMYAASDCDAS, the “Phage library screen NGS readout, Target Concentration 10” value was found to be 0; the “Phage library screen NGS readout, Target Concentration 30” value amounted to 0; the “Phage library screen NGS readout, Target Concentration 100” value is given as 1; the “Phage library screen NGS readout, Target Concentration 300” value is given as 2. Moreover, the “Phage library screen NGS readout, Target Concentration 1000” value under setting [1] was found to be 6. For the same sequence, the “Phage library screen NGS readout, Target Concentration 1000” value under setting [2] is listed as 4. Moreover, the “Phage library screen NGS readout, BLANK” value (column 1 of 5) is reported as 1. Also, where the note is “column 2 of 5”, the “Phage library screen NGS readout, BLANK” value was found to be 0. In addition, where the note is “column 3 of 5”, the “Phage library screen NGS readout, BLANK” value was determined as 0. Besides, the “Phage library screen NGS readout, BLANK” value (column 4 of 5) is listed as 0. The “Phage library screen NGS readout, BLANK” value (column 5 of 5) came out at 2.
As to DPAEEYCLEAAILCTYD, the “Phage library screen NGS readout, Target Concentration 10” value is reported as 0; the “Phage library screen NGS readout, Target Concentration 30” value came to 0; the “Phage library screen NGS readout, Target Concentration 100” value worked out at 1; the “Phage library screen NGS readout, Target Concentration 300” value was found to be 14. Under setting [1], the “Phage library screen NGS readout, Target Concentration 1000” value stood at 44. For the same sequence, under setting [2], the “Phage library screen NGS readout, Target Concentration 1000” value amounted to 32. Further, the “Phage library screen NGS readout, BLANK” value (column 1 of 5) is recorded as 0. For the same sequence, the “Phage library screen NGS readout, BLANK” value (column 2 of 5) was 0. The “Phage library screen NGS readout, BLANK” value (column 3 of 5) was 0. Moreover, the “Phage library screen NGS readout, BLANK” value (column 4 of 5) worked out at 0. Besides, under “column 5 of 5”, the “Phage library screen NGS readout, BLANK” value is reported as 0.
Regarding DPAVVDCWDAAVQCTYY, the “Phage library screen NGS readout, Target Concentration 10” value is recorded as 0; the “Phage library screen NGS readout, Target Concentration 30” value was 0; the “Phage library screen NGS readout, Target Concentration 100” value is listed as 0; the “Phage library screen NGS readout, Target Concentration 300” value stood at 4. The “Phage library screen NGS readout, Target Concentration 1000” value under setting [1] turned out to be 15. The “Phage library screen NGS readout, Target Concentration 1000” value under setting [2] is 11. Moreover, the “Phage library screen NGS readout, BLANK” value (column 1 of 5) stood at 0. Moreover, the “Phage library screen NGS readout, BLANK” value (column 2 of 5) is 0. For the same sequence, under “column 3 of 5”, the “Phage library screen NGS readout, BLANK” value worked out at 0. The “Phage library screen NGS readout, BLANK” value (column 4 of 5) came to 2. Further, under “column 5 of 5”, the “Phage library screen NGS readout, BLANK” value turned out to be 0.
Regarding DPAWTDCDWAALYCEFQ, the “Phage library screen NGS readout, Target Concentration 10” value is listed as 1; the “Phage library screen NGS readout, Target Concentration 30” value was 0; the “Phage library screen NGS readout, Target Concentration 100” value was 0; the “Phage library screen NGS readout, Target Concentration 300” value was found to be 0. In addition, the “Phage library screen NGS readout, Target Concentration 1000” value under setting [1] was found to be 6. In addition, the “Phage library screen NGS readout, Target Concentration 1000” value under setting [2] was determined as 6. In addition, the “Phage library screen NGS readout, BLANK” value (column 1 of 5) is reported as 0. Further, the “Phage library screen NGS readout, BLANK” value (column 2 of 5) turned out to be 0. For the same sequence, the “Phage library screen NGS readout, BLANK” value (column 3 of 5) is on record as 0. In addition, for the setting “column 4 of 5”, the “Phage library screen NGS readout, BLANK” value is 1. The “Phage library screen NGS readout, BLANK” value (column 5 of 5) came to 0.
